US20220002427A1 (ENGMAB SARL, published 2022)
Several values for one entry are separate records, joined by “and”; a condition that tells them apart may be missing. Equal entries are not always repeated.

T1: human BCMA on cells (human, UniProt Q02223 1-184)
T1 construct: whole, on cells; also called huBCMA on HEK cells; HEK-huBCMA cells
T1 sequence (looked up): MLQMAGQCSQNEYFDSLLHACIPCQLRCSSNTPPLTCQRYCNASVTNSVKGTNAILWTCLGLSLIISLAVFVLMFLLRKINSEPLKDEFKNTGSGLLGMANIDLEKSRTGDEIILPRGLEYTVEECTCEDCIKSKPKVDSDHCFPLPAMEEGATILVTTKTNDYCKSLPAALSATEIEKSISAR

T2: recombinant human BCMA Fc(kih) (human, UniProt Q02223 4-53, site-specifically biotinylated at the C-terminal avi-tag ; Biotin on the avi-tag at the C-terminus of the Fc knob chain (tag and Fc left out).)
T2 construct: Knobs-into-holes heterodimer carrying one BCMA ectodomain; also called huBCMA Fc(kih); huBCMA; not shown: human IgG1 hinge-Fc knob chain with C-terminal avi-tag, and the unfused Fc hole chain
T2 chain: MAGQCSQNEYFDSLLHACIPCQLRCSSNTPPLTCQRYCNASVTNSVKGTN

B1: Mab 42 IgG (antibody, V domains shown)
VH: EVQLLESGGGLVQPGGSLRLSCAASGFTFSDNAMGWVRQAPGKGLEWVSAISGPGSSTYYADSVKGRFTISRDNSKNTLYLQMNSLRAEDTAVYYCAKVLGWFDYWGQGTLVTVSS
VL: EIVLTQSPGTLSLSPGERATLSCRASQSVSDEYLSWYQQKPGQAPRLLIHSASTRATGIPDRFSGSGSGTDFTLAISRLEPEDFAVYYCQQYGYPPDFTFGQGTKVEIK
notes: also called antibody 42; clone 42
B2: Mab 27 IgG (antibody, V domains shown)
VH: EVQLLESGGGLVQPGGSLRLSCAASGFTFSSAPMGWVRQAPGKGLEWVSAISYIGHTYYADSVKGRFTISRDNSKNTLYLQMNSLRAEDTAVYYCAKVLGWFDYWGQGTLVTVSS
VL: EIVLTQSPGTLSLSPGERATLSCRASQSVSEYYLAWYQQKPGQAPRLLIEHASTRATGIPDRFSGSGSGTDFTLTISRLEPEDFAVYYCQQYGYPPDFTFGQGTKVEIK

Key:
human BCMA on cells = target: T1, human BCMA on cells; assay: flow cytometry on HEK-huBCMA cells, PE anti-human Fc detection
[1] = target: T3, recombinant cynomolgus BCMA Fc(kih) (cynomolgus, UniProt A0A2K5UD97 4-51); assay: SPR (Biacore T200), IgG captured via anti-human Fab, BCMA Fc(kih) as analyte, 1:1 Langmuir fit
T3 sequence (A0A2K5UD97 entry or part of it): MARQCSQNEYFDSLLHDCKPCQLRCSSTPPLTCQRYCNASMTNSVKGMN
Description: (§1) Assessment of binding of anti-BCMA antibodies to recombinant BCMA by surface plasmon resonance (SPR) as follow. […] The avidity of the interaction between anti-BCMA antibodies and recombinant BCMA Fc(kih) (human and cynomolgus) was determined. Biotinylated recombinant human and cynomolgus BCMA Fc(kih) were directly coupled on a SA chip following instructions (Biacore, Freiburg/Germany). The immobilization level ranged from 200 to 700 RU. […] The dissociation was monitored for 180 seconds. Bulk refractive index differences were corrected for by subtracting the response obtained on the reference flow cell. Here, the anti-BCMA antibodies were flown over an empty surface previously activated and deactivated as described in the standard amine coupling kit. Apparent kinetic constants were derived using the Biacore T200 Evaluation Software (vAA, Biacore AB, Uppsala/Sweden), to fit rate equations for 1:1 Langmuir binding by numerical integration, despite the bivalency of the interaction for comparison purposes. The affinity of the interaction between anti-BCMA antibodies and recombinant human BCMA Fc(kih) was also determined. Anti-human Fab antibody (GE Healthcare) was directly coupled on a CMS chip at pH 5.0 using the standard amine coupling kit (Biacore, Freiburg/Germany). The immobilization level was about 6500 RU. […] The dissociation was monitored for 120 seconds. Bulk refractive index differences were corrected for by subtracting the response obtained on reference flow cell. […] Kinetic constants were derived using the Biacore T100 Evaluation Software (vAA, Biacore AB, Uppsala/Sweden), to fit rate equations for 1:1 Langmuir binding by numerical integration (Table 4).

[2] = target: T2, recombinant human BCMA Fc(kih); assay: as above
Description: as §1

[3] = target: T4, murine BCMA extracellular domain, monomeric Fc-fusion (murine, UniProt O88472 1-49, site-specifically biotinylated at the C-terminal avi-tag); assay: SPR one-shot kinetics (ProteOn XPR36), IgG captured from HEK293 supernatant via anti-human F(ab)2, BCMA as analyte
T4 construct: extracellular domain; also called muBCMA; mouse BCMA; not shown: hinge and Fc of human IgG1, knob chain; avi-tag; unfused human IgG1 Fc portion (hole chain)
T4 sequence (O88472 whole entry, the tested form may be a part): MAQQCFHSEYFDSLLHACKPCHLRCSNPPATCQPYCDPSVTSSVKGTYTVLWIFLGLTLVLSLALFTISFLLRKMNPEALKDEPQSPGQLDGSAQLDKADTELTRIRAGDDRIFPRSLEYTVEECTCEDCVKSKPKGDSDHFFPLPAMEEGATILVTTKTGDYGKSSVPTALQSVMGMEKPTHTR
Description: (§2) All experiments were performed at 25° C. using PBST as running buffer (10 mM PBS, pH 7.4 and 0.005% (v/v) Tween®20). A ProteOn XPR36 biosensor equipped with GLC and GLM sensor chips and coupling reagents (10 mM sodium acetate, pH 4.5, sulfo-N-hydroxysuccinimide, 1-ethyl-3-(3-dimethylaminopropyl)-carbodiimide hydrochloride [EDC] and ethanolamine) was purchased from BioRad Inc. (Hercules, Calif.). Immobilizations were performed at 30 μl/min. on a GLM chip. pAb (goat) anti hu IgG, F(ab)2 specific Ab (Jackson) was coupled in vertical direction using a standard amine-coupling procedure: all six ligand channels were activated for 5 min with a mixture of EDC (200 mM) and sulfo-NHS (50 mM). Immediately after the surfaces were activated, pAb (goat) anti hu IgG, F(ab)2 specific antibody (50 μg/ml, 10 mM sodium acetate, pH 5) was injected across all six channels for 5 min. Finally, channels were blocked with a 5 min injection of 1 M ethanolamine-HCl (pH 8.5). […] One-shot kinetic measurements were performed by injection of a dilution series of human, cyno and mouse BCMA (50, 10, 2, 0.4, 0.08, 0 nM, 50 μl/min) for 3 min along the vertical channels. Dissociation was monitored for 5 min Kinetic data were analyzed in ProteOn Manager v. 2.1. Processing of the reaction spot data involved applying an interspot-reference and a double-reference step using an inline buffer blank (Myszka, 1999). The processed data from replicate one-shot injections were fit to a simple 1:1 Langmuir binding model without mass transport (O'Shannessy et al., 1993).

[4] = target: T3, recombinant cynomolgus BCMA Fc(kih); assay: as above
Description: as §2

[5] = target: T2, recombinant human BCMA Fc(kih); assay: as above
Description: as §2

[6] = target: T3, recombinant cynomolgus BCMA Fc(kih); assay: ratio of SPR KD values (KD cynomolgus BCMA / KD human BCMA), reference human BCMA Fc(kih)
Description: The avidity of the interaction between anti-BCMA antibodies and recombinant BCMA Fc(kih) (human and cynomolgus) was determined. Biotinylated recombinant human and cynomolgus BCMA Fc(kih) were directly coupled on a SA chip following instructions (Biacore, Freiburg/Germany). The immobilization level ranged from 200 to 700 RU. […] The dissociation was monitored for 180 seconds. Bulk refractive index differences were corrected for by subtracting the response obtained on the reference flow cell. Here, the anti-BCMA antibodies were flown over an empty surface previously activated and deactivated as described in the standard amine coupling kit. Apparent kinetic constants were derived using the Biacore T200 Evaluation Software (vAA, Biacore AB, Uppsala/Sweden), to fit rate equations for 1:1 Langmuir binding by numerical integration, despite the bivalency of the interaction for comparison purposes. The affinity of the interaction between anti-BCMA antibodies and recombinant human BCMA Fc(kih) was also determined. Anti-human Fab antibody (GE Healthcare) was directly coupled on a CMS chip at pH 5.0 using the standard amine coupling kit (Biacore, Freiburg/Germany). The immobilization level was about 6500 RU. […] The dissociation was monitored for 120 seconds. Bulk refractive index differences were corrected for by subtracting the response obtained on reference flow cell. […] Kinetic constants were derived using the Biacore T100 Evaluation Software (vAA, Biacore AB, Uppsala/Sweden), to fit rate equations for 1:1 Langmuir binding by numerical integration (Table 4).
Based on the affinity values described in Example 2, the affinity of anti-BCMA antibodies to human BCMA vs. cynomolgus BCMA were compared and cyno/hu affinity ratio (gap) values were calculated (Table 5).

| Binder | EC50 (human BCMA on cells) | Kd [1] [nM] | koff [1] [s⁻¹] | kon [1] [M⁻¹ s⁻¹] | Kd [2] [nM] | koff [2] [s⁻¹] | kon [2] [M⁻¹ s⁻¹] | Kd [3] [nM] | Kd [4] [nM] | Kd [5] [nM] | Affinity cyno/hu gap [6] [fold] |
| --- | --- | --- | --- | --- | --- | --- | --- | --- | --- | --- | --- |
| B1 | 2.1 nM and 0.3 µg/mL | 0.641 | 0.000453 | 707000 | 0.371 | 0.000298 | 803000 | 2.5 | 0.39 | 0.23 | 1.7 |
| B2 | 10.6 nM and 1.52 µg/mL | 2.11 | 0.000455 | 216000 | 0.165 | 5.93e-05 | 359000 | 0.97 | 0.1 | 0.00039 | 12.7 |
